According to the supplement of paper PMC10065799, “High-throughput profiling of sequence recognition by tyrosine kinases and SH2 domains using bacterial peptide display” (eLife, 2023):

Key:
c-Src SH2 = assay: SH2 binding enrichment of the phosphorylated peptide, bacterial display (enrichment ratio); higher = better substrate or ligand; peptides without Tyr show the background
Grb2 SH2 = Grb2 SH2 (UniProt P62993); assay: as above
SHP2-C SH2 = assay: as above
Fyn = Fyn (UniProt P06241); assay: phosphorylation enrichment, bacterial display (enrichment ratio); higher = better substrate or ligand; peptides without Tyr show the background
EPHB1 = EPHB1 (UniProt P54762); assay: as above
c-Src = assay: as above
Fes = Fes (UniProt P07332); assay: as above
FGFR3 = FGFR3 (UniProt P22607); assay: as above
Hck = Hck (UniProt P08631); assay: as above
EPHB2 = EPHB2 (UniProt P29323); assay: as above
c-Abl (mouse) = assay: as above
FGFR1 = FGFR1 (UniProt P11362); assay: as above
Fer (mouse) = assay: as above
AncSZ = assay: as above
MERTK = MERTK (UniProt Q12866); assay: as above
Jak2 = Jak2 (UniProt O60674); assay: as above
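Throughout, for SH2 binding enrichment of the phosphorylated peptide, bacterial display: peptide library displayed on the E. coli surface as eCPX fusions, selected cells deep-sequenced, score is each peptide's frequency after selection divided by its frequency in the input.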
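Throughout, for phosphorylation enrichment, bacterial display: 11-residue human phosphosite peptides and single-mutation variants displayed on the E. coli surface, counted by deep sequencing, each peptide's frequency after selection divided by its frequency in the unselected input library; frequency after pTyr selection over input frequency; kinase dosed for 20-30% of maximal phosphorylation in three min.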

Sequence of Grb2 SH2 (P62993 whole entry, looked up): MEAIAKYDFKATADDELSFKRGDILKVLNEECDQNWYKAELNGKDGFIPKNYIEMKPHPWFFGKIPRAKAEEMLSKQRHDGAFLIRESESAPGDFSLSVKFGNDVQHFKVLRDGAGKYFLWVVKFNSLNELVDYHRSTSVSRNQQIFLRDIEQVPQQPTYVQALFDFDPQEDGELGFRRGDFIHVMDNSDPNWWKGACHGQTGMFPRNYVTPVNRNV
Sequence of Hck (P08631 whole entry, looked up): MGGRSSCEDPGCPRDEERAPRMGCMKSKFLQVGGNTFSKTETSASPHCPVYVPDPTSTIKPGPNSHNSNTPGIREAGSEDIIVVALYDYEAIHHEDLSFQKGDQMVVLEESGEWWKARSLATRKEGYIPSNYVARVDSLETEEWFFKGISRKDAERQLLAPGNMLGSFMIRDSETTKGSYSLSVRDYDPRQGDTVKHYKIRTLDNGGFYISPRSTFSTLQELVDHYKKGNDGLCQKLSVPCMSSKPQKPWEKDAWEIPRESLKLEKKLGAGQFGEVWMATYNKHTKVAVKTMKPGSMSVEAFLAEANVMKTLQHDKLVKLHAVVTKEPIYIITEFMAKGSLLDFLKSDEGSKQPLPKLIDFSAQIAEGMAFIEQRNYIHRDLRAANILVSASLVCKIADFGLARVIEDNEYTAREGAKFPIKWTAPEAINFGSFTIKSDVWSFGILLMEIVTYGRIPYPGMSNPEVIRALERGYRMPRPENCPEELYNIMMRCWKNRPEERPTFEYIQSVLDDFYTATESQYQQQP
Sequence of MERTK (Q12866 whole entry, looked up): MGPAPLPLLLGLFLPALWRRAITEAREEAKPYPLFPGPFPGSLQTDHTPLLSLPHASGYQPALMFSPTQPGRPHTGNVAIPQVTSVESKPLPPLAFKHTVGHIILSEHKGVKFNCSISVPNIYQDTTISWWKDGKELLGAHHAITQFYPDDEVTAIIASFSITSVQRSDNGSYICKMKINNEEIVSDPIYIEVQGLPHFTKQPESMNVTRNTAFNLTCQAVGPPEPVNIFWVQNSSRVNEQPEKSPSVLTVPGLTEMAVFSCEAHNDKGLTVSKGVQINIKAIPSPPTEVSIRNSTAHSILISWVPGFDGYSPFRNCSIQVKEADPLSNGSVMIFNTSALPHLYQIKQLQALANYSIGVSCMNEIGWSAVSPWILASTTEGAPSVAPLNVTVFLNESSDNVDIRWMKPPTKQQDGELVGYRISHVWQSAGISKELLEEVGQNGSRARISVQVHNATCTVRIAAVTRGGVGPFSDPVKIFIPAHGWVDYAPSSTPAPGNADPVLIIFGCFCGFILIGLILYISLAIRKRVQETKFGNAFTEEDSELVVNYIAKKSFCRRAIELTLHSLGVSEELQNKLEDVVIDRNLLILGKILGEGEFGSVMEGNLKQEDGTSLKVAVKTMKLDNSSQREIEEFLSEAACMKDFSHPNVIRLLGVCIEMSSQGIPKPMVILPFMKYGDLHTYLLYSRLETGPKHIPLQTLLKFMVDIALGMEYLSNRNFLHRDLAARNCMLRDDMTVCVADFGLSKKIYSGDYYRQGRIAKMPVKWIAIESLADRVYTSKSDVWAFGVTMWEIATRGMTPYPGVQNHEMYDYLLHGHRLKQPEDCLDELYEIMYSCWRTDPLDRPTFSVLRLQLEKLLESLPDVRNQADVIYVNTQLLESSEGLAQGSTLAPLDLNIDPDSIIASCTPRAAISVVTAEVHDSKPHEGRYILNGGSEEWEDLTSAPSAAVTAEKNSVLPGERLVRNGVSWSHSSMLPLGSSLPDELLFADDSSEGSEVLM
Sequence of EPHB2 (P29323 whole entry, looked up): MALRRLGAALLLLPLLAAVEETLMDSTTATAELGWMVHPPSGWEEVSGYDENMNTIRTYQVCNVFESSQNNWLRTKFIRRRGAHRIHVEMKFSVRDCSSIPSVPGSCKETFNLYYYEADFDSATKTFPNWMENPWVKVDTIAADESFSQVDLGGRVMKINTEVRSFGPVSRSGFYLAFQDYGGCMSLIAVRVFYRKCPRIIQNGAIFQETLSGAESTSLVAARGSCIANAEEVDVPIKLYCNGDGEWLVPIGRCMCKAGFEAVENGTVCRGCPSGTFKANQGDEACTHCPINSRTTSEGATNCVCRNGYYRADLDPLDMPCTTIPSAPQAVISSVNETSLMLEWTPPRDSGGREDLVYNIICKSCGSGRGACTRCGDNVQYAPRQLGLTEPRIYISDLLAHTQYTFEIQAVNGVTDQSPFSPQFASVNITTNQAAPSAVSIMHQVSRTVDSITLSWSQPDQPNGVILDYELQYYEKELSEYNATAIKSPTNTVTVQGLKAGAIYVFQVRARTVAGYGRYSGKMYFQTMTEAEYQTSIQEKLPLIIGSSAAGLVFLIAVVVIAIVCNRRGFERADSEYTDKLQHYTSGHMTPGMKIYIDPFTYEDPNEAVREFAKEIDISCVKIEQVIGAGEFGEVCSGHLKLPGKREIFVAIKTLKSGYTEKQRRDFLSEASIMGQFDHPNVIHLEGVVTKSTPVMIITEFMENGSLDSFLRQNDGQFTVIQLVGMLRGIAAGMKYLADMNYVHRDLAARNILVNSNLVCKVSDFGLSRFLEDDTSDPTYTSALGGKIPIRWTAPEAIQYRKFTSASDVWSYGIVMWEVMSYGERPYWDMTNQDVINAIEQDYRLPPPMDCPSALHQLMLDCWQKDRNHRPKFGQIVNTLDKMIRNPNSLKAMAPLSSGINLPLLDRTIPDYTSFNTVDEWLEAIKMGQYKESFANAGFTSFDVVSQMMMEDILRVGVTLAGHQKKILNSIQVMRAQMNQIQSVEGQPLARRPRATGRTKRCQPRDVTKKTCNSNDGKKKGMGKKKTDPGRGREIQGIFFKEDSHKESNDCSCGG
Sequence of FGFR1 (P11362 whole entry, looked up): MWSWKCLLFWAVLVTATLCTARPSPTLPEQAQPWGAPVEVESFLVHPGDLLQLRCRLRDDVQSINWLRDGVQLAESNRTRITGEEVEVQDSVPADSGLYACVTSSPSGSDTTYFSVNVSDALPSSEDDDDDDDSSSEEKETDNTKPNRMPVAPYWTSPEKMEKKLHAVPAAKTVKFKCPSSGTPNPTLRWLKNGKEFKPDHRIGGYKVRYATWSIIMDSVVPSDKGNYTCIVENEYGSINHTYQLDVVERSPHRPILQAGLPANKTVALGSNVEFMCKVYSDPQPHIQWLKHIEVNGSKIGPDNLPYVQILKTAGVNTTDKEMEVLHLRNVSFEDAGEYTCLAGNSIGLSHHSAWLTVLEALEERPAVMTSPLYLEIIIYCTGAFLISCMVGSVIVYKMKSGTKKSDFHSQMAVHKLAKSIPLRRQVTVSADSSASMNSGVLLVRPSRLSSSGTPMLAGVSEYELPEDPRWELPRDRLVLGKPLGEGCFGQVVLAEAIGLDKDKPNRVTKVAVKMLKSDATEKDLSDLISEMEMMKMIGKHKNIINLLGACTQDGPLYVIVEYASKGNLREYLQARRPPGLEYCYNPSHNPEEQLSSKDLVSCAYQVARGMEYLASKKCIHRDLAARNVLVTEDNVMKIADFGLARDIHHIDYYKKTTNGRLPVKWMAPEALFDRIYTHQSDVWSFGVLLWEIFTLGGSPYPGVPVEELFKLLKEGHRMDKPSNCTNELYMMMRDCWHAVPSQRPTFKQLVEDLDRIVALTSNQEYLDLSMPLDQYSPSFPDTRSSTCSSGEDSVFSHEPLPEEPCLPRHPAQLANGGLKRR
Sequence of Fyn (P06241 whole entry, looked up): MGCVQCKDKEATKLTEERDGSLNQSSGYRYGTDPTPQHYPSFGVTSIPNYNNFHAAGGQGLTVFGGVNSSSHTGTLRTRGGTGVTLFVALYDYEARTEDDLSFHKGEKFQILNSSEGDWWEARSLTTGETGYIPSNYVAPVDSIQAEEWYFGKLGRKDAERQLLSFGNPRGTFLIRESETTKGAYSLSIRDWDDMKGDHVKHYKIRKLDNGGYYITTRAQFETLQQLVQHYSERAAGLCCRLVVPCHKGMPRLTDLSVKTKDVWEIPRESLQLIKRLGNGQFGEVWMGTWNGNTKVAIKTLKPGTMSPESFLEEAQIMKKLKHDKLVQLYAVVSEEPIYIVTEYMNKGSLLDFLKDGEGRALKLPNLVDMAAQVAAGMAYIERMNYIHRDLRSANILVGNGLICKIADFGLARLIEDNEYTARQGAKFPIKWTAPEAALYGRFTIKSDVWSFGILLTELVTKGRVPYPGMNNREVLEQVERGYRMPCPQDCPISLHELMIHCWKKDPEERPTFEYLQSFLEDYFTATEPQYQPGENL
Sequence of Fes (P07332 whole entry, looked up): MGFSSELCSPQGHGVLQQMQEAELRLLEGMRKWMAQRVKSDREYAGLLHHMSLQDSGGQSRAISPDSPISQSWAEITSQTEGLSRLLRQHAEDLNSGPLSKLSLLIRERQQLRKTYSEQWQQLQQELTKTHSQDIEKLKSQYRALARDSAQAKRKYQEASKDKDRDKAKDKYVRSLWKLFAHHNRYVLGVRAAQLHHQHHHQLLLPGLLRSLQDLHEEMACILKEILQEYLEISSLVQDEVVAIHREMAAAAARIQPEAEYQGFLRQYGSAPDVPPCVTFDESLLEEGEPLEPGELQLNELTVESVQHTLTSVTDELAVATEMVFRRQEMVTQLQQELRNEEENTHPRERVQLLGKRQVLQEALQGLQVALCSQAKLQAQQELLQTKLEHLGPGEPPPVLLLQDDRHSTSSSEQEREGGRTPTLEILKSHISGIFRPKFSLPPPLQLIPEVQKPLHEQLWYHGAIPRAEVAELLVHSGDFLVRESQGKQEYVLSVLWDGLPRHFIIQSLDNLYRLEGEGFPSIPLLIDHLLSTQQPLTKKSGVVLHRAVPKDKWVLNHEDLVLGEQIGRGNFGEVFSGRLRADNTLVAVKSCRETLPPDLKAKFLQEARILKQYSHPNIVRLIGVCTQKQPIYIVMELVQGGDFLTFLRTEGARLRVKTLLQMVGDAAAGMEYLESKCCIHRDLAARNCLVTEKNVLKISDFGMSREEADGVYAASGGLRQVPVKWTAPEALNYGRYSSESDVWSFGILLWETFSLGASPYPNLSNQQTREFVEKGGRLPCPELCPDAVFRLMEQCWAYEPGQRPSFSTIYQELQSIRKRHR

Sequence | SH2 binding enrichment (c-Src SH2) | SH2 binding enrichment (Grb2 SH2) | SH2 binding enrichment (SHP2-C SH2) | phosphorylation enrichment (Fyn) | phosphorylation enrichment (EPHB1) | phosphorylation enrichment (c-Src) | phosphorylation enrichment (Fes) | phosphorylation enrichment (FGFR3) | phosphorylation enrichment (Hck) | phosphorylation enrichment (EPHB2) | phosphorylation enrichment (c-Abl (mouse)) | phosphorylation enrichment (FGFR1) | phosphorylation enrichment (Fer (mouse)) | phosphorylation enrichment (AncSZ) | phosphorylation enrichment (MERTK) | phosphorylation enrichment (Jak2)
AEPPDYSPVTQ [ADGRG2_Y285_H290Q] | 0.441 | 0.82 | 0.93 | 0.444 | 0.435 | 0.522 | 1.16 | 0.717 | 0.557 | 0.626 | 0.99 | 0.514 | 0.546 | 1.46 | 0.342 | 0.95
CTTIHYNFMCI [TP53_Y234_N239I_YF] | 1.72 | 1.71 | 1.57 | 0.477 | 0.621 | 0.434 | 1.26 | 0.707 | 0.529 | 0.673 | 0.809 | 0.598 | 0.706 | 1.05 | 0.392 | 0.969
LERYIYNREEF [HLA-DPB1_Y59] | 0.634 | 0.956 | 0.698 | 1.26 | 0.756 | 2.63 | 1.24 | 1.18 | 1.56 | 1.22 | 0.757 | 0.564 | 0.587 | 1.05 | 0.629 | 0.874
SHGQDYLAGNK [GSTA2_Y147_V149A] | 0.583 | 1.11 | 0.693 | 0.458 | 0.348 | 0.404 | 0.845 | 0.49 | 0.364 | 0.36 | 0.452 | 0.597 | 0.421 | 0.641 | 0.471 | 0.64
NTEGGYCCICA [CRELD1_Y328_R329C] | 0.632 | 0.704 | 0.693 | 0.512 | 0.497 | 0.529 | 0.966 | 0.668 | 0.911 | 0.657 | 0.894 | 0.562 | 0.583 | 1.02 | 0.673 | 0.878
GGKFSYLKVGH [GRM3_Y480_YF] | 0.401 | 0.901 | 0.525 | 0.361 | 0.409 | 0.411 | 0.619 | 0.519 | 0.371 | 0.368 | 0.494 | 0.512 | 0.344 | 0.634 | 0.463 | 0.642
KWHREYNSKYV [RICTOR_Y835] | 1.14 | 1.47 | 1.31 | 0.398 | 0.348 | 0.294 | 0.414 | 0.42 | 0.371 | 0.401 | 0.461 | 0.37 | 0.32 | 0.461 | 0.339 | 0.513
CTTIHYNFMCT [TP53_Y234_N239T_YF] | 1.66 | 2.04 | 1.99 | 0.459 | 0.54 | 0.551 | 1.01 | 0.752 | 0.501 | 0.485 | 0.839 | 0.538 | 0.501 | 1.06 | 0.419 | 0.997
AVLALYNSTRD [TGFB1_Y81] | 0.688 | 0.835 | 0.55 | 0.462 | 0.466 | 0.489 | 0.942 | 0.547 | 0.511 | 0.53 | 0.702 | 0.493 | 0.531 | 0.755 | 0.639 | 0.78
ISHVAYLVLGK [TRRAP_Y892_R893L] | 1.1 | 1.47 | 3.41 | 0.507 | 0.805 | 0.454 | 1.07 | 0.75 | 0.485 | 0.5 | 0.588 | 0.535 | 0.505 | 0.95 | 0.53 | 0.996
IVRSLYEDQED [VHL_Y185_L188Q] | 1.09 | 0.985 | 0.993 | 0.477 | 0.67 | 0.59 | 1.36 | 0.742 | 0.581 | 0.621 | 0.826 | 0.67 | 0.523 | 1.39 | 0.482 | 1.3
LFFFSYLLKNH [PTEN_Y180_V175L_YF] | 0.769 | 0.901 | 0.696 | 0.346 | 0.443 | 1 | 1.98 | 0.671 | 0.705 | 0.976 | 1.66 | 0.577 | 0.672 | 1.39 | 0.584 | 2.28
GISDEYHVIWH [GCDH_Y398_R402W] | 0.568 | 0.789 | 0.521 | 0.837 | 1.46 | 1.09 | 1.17 | 4.61 | 1 | 1.1 | 0.818 | 7.06 | 0.649 | 2.07 | 0.391 | 1.34
IQRSLYDRPAS [PDGFRA_Y762] | 1.98 | 0.83 | 0.543 | 0.613 | 0.488 | 0.458 | 0.643 | 0.469 | 1.59 | 0.479 | 0.541 | 0.489 | 0.988 | 0.699 | 0.689 | 0.577
PSSRDYKDNIK [PIGN_Y227_H229D] | 0.394 | 1.16 | 0.449 | 0.496 | 0.595 | 0.569 | 0.649 | 0.614 | 0.381 | 0.467 | 0.47 | 0.614 | 0.407 | 0.556 | 0.727 | 0.9
SVEELYAIPPD [PEAK1_Y797] | 0.543 | 0.746 | 0.733 | 2.88 | 3.15 | 3.28 | 1.59 | 5.64 | 4.24 | 13.6 | 9.56 | 5.57 | 5.23 | 3.92 | 9.81 | 1.78
